# Results published in paper PMC8571082.
# B1: factor inhibiting HIF-1 (FIH-1), full-length [human] / Mint3NT, N-terminal fragment (1–214) of Mint3 [human] (parent)
# chain 1: MDFPTISRSPSGPPAMDLEGPRDILVPSEDLTPDSQWDPMPGGPGSLSRMELDESSLQELVQQFEALPGDLVGPSPGGAPCPLHIATGHGLASQEIADAHGLLSAEAGRDDLLGLLHCEECPPSQTGPEEPLEPAPRLLQPPEDPDEDSDSPEWVEGASAEQEGSRSSSSSPEPWLETVPLVTPEEPPAGAQSPETLASYPAPQEVPGPCDHED
# chain 2: MAATAAEAVASGSGEPREEAGALGPAWDESQLRSYSFPTRPIPRLSQSDPRAEELIENEEPVVLTDTNLVYPALKWDLEYLQENIGNGDFSVYSASTHKFLYYDEKKMANFQNFKPRSNREEMKFHEFVEKLQDIQQRGGEERLYLQQTLNDTVGRKIVMDFLGFNWNWINKQQGKRGWGQLTSNLLLIGMEGNVTPAHYDEQQNFFAQIKGYKRCILFPPDQFECLYPYPVHHPCDRQSQVDFDNPDYERFPNFQNVVGYETVVGPGDVLYIPMYWWHHIESLLNGGITITVNFWYKGAPTPKRIEYPLKAHQKVAIMRNIEKMLGEALGNPQEVGPLLNTMIKGRYN
# Variants of: B1
# Assay: ITC
# Conditions: with Mint3NT, measured three times for each FIH-1 mutant
row,Variant,screen value
1,chain 2 N171A,21.4 kcal/mol
2,chain 2 E29A,19.5 kcal/mol
3,chain 2 D248A,-28.4 kcal/mol
4,chain 2 E79A,-28.5 kcal/mol
5,chain 2 K75A,20.2 kcal/mol
6,chain 2 Y71A,-28.9 kcal/mol
7,chain 2 E250A,20.1 kcal/mol
